In patent publication US20060253917A1 (published 2006):
Blank lines part the entries; values can stand above or below the binder they belong to.

B3: OsMADS3 aa 70-170 (other)
chain: KKANSDTSNSGTVAEVNAQHYQQESSKLRQQISSLQNANSRTIVGDSINTMSLRDLKQVENRLEKGIAKIRARKNELLYAEVEYMQKREVELQNDNMYLRS
notes: bait, Gal4 DBD fusion; also called PN20700
B7: OsMADS6 aa 50-200 (other)
chain: SRGKLYEFGSAGITKTLERYQHCCYNAQDSNNALSETQSWYHEMSKLKAKFEALQRTQRHLLGEDLGPLSVKELQQLEKQLECALSQARQRKTQLMMEQVEELRRKERQLGEINRQLKHKLEVEGSTSNYRAMQQASWAQGAVVENGAAYV
notes: bait, Gal4 DBD fusion; also called PN20233

Legend:
OsMADS3 aa 70-170 = target: B3; test: Y2H; input trait library
Method in brief: (§1)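 A rice prey library, either the input trait or the output trait library, was screened with a bait clone encoding a defined amino-acid fragment of a rice protein. Screening used an automated, high-throughput yeast two-hybrid assay provided by Myriad Genetics Inc. (Salt Lake City, Utah). Retrieved prey clones had their encoding sequences compared by BLAST against databases so the interacting proteins could be identified.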

OsMADS6 aa 50-200 = target: B7; test: Y2H; input trait library
Method in brief: as §1

OsMADS45 aa 48-249 = target: T1, OsMADS45 aa 48-249 (Oryza sativa, UniProt P0C5B0 48-249); test: Y2H; input trait library
T1 construct: prey, AD fusion; also called PN20231
T1 sequence: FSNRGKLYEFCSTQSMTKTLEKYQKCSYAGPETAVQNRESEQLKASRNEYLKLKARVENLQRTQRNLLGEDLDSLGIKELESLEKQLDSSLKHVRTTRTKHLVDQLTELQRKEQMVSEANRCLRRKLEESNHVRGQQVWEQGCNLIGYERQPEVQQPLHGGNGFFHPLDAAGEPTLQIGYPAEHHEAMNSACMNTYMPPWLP
Method in brief: as §1

OsMADS8 aa 61-248 = target: T2, OsMADS8 aa 61-248 (Oryza sativa, UniProt Q9SAR1 61-248); test: Y2H; input trait library
T2 construct: prey, AD fusion; also called PN20778
T2 sequence: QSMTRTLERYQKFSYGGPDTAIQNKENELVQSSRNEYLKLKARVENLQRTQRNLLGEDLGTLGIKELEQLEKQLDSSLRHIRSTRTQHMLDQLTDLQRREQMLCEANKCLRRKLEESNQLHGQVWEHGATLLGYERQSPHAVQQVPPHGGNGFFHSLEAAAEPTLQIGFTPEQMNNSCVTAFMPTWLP
Method in brief: as §1

OsMADS8 aa 6-159 = target: T3, OsMADS8 aa 6-159 (Oryza sativa, UniProt Q9SAR1 6-159); test: Y2H; output trait library
T3 construct: prey, AD fusion; also called PN20778
T3 sequence: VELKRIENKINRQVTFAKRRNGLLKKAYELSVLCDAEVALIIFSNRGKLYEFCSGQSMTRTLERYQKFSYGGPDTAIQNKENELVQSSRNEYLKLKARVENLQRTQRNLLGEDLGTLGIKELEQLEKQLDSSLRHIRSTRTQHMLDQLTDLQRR
Method in brief: as §1

OsMADS45 aa 2-214 = target: T4, OsMADS45 aa 2-214 (Oryza sativa, UniProt P0C5B0 2-214); test: Y2H; output trait library
T4 construct: prey, AD fusion; also called PN20231
T4 sequence: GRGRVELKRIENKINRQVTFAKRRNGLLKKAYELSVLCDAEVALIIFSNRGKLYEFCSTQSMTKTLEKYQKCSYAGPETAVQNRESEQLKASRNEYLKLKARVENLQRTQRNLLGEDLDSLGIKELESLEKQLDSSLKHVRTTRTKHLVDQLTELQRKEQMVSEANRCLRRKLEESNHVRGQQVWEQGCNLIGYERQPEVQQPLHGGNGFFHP
Method in brief: as §1

OsMADS45 aa 57-249 = target: T5, OsMADS45 aa 57-249 (Oryza sativa, UniProt P0C5B0 57-249); test: Y2H; output trait library
T5 construct: prey, AD fusion; also called PN20231
T5 sequence: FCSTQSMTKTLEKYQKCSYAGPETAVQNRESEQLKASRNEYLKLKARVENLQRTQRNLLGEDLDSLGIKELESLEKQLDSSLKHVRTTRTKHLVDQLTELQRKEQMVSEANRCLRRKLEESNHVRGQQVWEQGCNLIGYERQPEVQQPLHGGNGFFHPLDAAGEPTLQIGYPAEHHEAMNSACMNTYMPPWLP
Method in brief: as §1

OsMADS8 aa 68-245 = target: T6, OsMADS8 aa 68-245 (Oryza sativa, UniProt Q9SAR1 68-245); test: Y2H; output trait library
T6 construct: prey, AD fusion; also called PN20778
T6 sequence: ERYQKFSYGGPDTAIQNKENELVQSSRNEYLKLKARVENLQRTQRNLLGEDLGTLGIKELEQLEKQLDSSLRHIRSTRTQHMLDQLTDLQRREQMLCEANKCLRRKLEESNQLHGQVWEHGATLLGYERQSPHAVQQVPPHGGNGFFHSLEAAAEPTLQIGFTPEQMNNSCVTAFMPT
Method in brief: as §1

OsFDRMADS6 aa 74-246 = target: T7, OsFDRMADS6 aa 74-246 (Oryza sativa, UniProt P0C5B1 74-246); test: Y2H; output trait library
T7 construct: prey, AD fusion; also called PN19766
T7 sequence: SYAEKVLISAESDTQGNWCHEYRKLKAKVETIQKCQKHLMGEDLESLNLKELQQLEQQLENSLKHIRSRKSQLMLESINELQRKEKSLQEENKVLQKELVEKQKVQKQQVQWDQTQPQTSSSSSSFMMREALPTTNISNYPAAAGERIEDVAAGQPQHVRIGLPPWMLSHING
Method in brief: as §1

OsMADS17 aa 51-248 = target: T8, OsMADS17 aa 51-248 (Oryza sativa, UniProt Q7XUN2 51-248); test: Y2H; output trait library
T8 construct: prey, AD fusion; also called PN20914
T8 sequence: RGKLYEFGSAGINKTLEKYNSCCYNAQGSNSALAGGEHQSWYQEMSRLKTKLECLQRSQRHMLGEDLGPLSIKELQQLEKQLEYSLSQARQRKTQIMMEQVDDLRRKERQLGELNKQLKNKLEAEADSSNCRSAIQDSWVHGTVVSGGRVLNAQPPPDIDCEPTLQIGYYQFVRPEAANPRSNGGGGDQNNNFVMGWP
Method in brief: as §1

OsMADS45 aa 56-249 = target: T9, OsMADS45 aa 56-249 (Oryza sativa, UniProt P0C5B0 56-249); test: Y2H; output trait library
T9 construct: prey, AD fusion; also called PN20231
T9 sequence: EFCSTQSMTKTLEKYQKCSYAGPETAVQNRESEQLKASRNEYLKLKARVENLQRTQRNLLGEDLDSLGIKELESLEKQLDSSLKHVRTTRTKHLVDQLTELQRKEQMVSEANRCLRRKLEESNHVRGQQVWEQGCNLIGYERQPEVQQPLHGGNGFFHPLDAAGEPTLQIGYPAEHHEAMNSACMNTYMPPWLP
Method in brief: as §1

OsMADS45 aa 120-249 = target: T10, OsMADS45 aa 120-249 (Oryza sativa, UniProt P0C5B0 120-249); test: Y2H; output trait library
T10 construct: prey, AD fusion; also called PN20231
T10 sequence: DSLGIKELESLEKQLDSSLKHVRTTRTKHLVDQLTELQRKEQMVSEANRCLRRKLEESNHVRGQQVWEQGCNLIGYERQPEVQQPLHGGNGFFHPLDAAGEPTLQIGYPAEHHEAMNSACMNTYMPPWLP
Method in brief: as §1

OsMADS1 aa 74-172 = target: T11, OsMADS1 aa 74-172 (Oryza sativa, UniProt A2XDY1 74-172); test: Y2H; input trait library
T11 construct: prey, AD fusion; also called PN19788
T11 sequence: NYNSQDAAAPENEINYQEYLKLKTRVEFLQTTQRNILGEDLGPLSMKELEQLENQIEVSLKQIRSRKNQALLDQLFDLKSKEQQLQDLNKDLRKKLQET
Method in brief: as §1

OsMADS1 aa 95-254 = target: T12, OsMADS1 aa 95-254 (Oryza sativa, UniProt A2XDY1 95-254); test: Y2H; input trait library
T12 construct: prey, AD fusion; also called PN19788
T12 sequence: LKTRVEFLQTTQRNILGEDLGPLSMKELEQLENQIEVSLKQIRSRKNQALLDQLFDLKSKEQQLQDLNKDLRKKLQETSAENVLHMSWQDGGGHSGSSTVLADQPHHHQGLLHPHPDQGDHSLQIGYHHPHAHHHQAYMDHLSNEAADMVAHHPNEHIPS
Method in brief: as §1

OsMADS8 aa 75-238 = target: T13, OsMADS8 aa 75-238 (Oryza sativa, UniProt Q9SAR1 75-238); test: Y2H; output trait library
T13 construct: prey, AD fusion; also called PN20778
T13 sequence: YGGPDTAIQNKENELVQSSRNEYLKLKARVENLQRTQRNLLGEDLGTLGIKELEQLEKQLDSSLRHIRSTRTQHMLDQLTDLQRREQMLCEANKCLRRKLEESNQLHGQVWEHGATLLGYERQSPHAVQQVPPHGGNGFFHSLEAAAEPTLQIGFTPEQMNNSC
Method in brief: as §1

OsRAP1B aa 1-179 = target: T14, OsRAP1B aa 1-179 (Oryza sativa, UniProt Q10CQ1 1-179); test: Y2H; output trait library
T14 construct: prey, AD fusion; also called PN20232
T14 sequence: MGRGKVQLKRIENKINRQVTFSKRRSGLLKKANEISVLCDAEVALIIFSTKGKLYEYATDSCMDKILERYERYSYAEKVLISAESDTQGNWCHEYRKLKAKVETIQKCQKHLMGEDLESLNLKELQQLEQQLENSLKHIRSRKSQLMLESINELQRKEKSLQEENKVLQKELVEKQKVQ
Method in brief: as §1

OsMADS45 aa 83-234 = target: T15, OsMADS45 aa 83-234 (Oryza sativa, UniProt P0C5B0 83-234); test: Y2H; output trait library
T15 construct: prey, AD fusion; also called PN20231
T15 sequence: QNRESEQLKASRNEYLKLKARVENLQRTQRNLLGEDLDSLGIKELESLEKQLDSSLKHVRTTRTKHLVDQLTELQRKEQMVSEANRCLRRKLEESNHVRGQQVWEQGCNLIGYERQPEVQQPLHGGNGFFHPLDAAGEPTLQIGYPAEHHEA
Method in brief: as §1

OsMADS8 aa 79-248 = target: T16, OsMADS8 aa 79-248 (Oryza sativa, UniProt Q9SAR1 79-248); test: Y2H; output trait library
T16 construct: prey, AD fusion; also called PN20778
T16 sequence: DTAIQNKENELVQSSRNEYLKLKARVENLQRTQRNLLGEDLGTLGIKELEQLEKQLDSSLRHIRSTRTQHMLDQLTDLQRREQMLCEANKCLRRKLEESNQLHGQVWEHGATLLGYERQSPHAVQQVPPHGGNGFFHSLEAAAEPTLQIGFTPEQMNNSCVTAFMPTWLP
Method in brief: as §1

OsMADS1 aa 70-257 = target: T17, OsMADS1 aa 70-257 (Oryza sativa, UniProt A2XDY1 70-257); test: Y2H; output trait library
T17 construct: prey, AD fusion; also called PN19788
T17 sequence: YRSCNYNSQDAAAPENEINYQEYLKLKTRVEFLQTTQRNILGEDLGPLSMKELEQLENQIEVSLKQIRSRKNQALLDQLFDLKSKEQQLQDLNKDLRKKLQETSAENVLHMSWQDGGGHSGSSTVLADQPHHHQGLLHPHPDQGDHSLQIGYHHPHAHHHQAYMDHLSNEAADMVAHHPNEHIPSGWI
Method in brief: as §1

B1: OsPN31165 aa 58-252 (other)
chain: YAREMERLSAKESLLLAFRDAGGFESLVSGKTTGMQKIDVNERIVGLERLNPTPRPTTSPFLEGRWNFEWFGDSSPGALAARLLFERSPTTVAHFTGLDVLIKDGYSKISSNVKFLNTVQSKFLLTTQLSVEGPIRMKEEYVEGLIEIPRIREETLPDQLKGFFGQTAGALQQLPAPIRDAVSEGIKLPLNGMFQ
notes: prey, AD fusion; also called Novel protein PN31165
binding result (OsMADS3 aa 70-170): binds

B2: OsRAP1B aa 1-188 (other)
chain: MGRGKVQLKRIENKINRQVTFSKRRSGLLKKANEISVLCDAEVALIIFSTKGKLYEYATDSCMDKILERYERYSYAEKVLISAESDTQGNWCHEYRKLKAKVETIQKCQKHLMGEDLESLNLKELQQLEQQLENSLKHIRSRKSQLMLESINELQRKEKSLQEENKVLQKELVEKQKVQKQQLQWDQT
notes: prey, AD fusion; also called PN20232
binding result (OsMADS6 aa 50-200): binds

Binder: B3
binding result (OsMADS45 aa 48-249): binds
binding result (OsMADS8 aa 61-248): binds
binding result (OsMADS8 aa 6-159): binds
binding result (OsMADS45 aa 2-214): binds
binding result (OsMADS45 aa 57-249): binds
binding result (OsMADS8 aa 68-245): binds

Binder: B7
binding result (OsMADS8 aa 75-238): binds
binding result (OsRAP1B aa 1-179): binds
binding result (OsMADS45 aa 83-234): binds
binding result (OsMADS8 aa 79-248): binds
binding result (OsMADS1 aa 70-257): binds

Continued, values first:

binding result (OsFDRMADS6 aa 74-246): binds
binding result (OsMADS17 aa 51-248): binds
B4: OsMADS5 aa 50-160 (other)
chain: TRGRLFEFSTSSCMYKTLERYRSCNYNLNSCEASAALETELSNYQEYLKLKTRVEFLQTTQRNLLGEDLVPLSLKELEQLENQIEISLMNIRSSKNQQLLDQVFELKRKEQ
notes: bait, Gal4 DBD fusion; also called PN20770

binding result (OsMADS45 aa 56-249): binds
B5: OsFDRMADS8 aa 60-160 (other)
chain: APSLQKTIDRYKAYTKDHVNNKTIQQDIQQVKDDTLGLAKKLEALDESRRKILGENLEGCSIEELRGLEMKLEKSLHNIRLKKTELLERQIAKLKEKERTL
notes: bait, Gal4 DBD fusion; also called PN20698

binding result (OsMADS45 aa 120-249): binds
binding result (OsMADS1 aa 74-172): binds
binding result (OsMADS1 aa 95-254): binds
B6: OsMADS15 aa 100-235 (other)
chain: AKIETIQKCHKHLMGEDHESLNLKELQQLEQQLESSLKHIISRKSHLMLESISELQKKERSLQEENKALQKELVERQKNVRGQQQVGQWDQTQVQAQAQAQPQAQTSSSSSSMLRDQQALLPPQNICYPPVMMGER
notes: bait, Gal4 DBD fusion; also called PN20842
